# How the values were obtained:
# [1] = molecular target: T1, mFLAG-EGF34+NRR-His6, the mouse Notch1 NRR immunogen (Notch1 V1307-Q1723) (mouse, UniProt Q01705 1307-1723); assay: ELISA, target coated on the plate at 1 ug/ml, IgG titrated in 3-fold steps, detected with peroxidase anti-human Fab; A630
# T1 construct: the rest carries an N-terminal FLAG tag and a C-terminal His tag; also called mNotch1 NRR; murine NRR1
# Experimental: (§1) 1 μg/ml of proteins in PBS, pH 7.4, were coated on ELISA plates (Nunc Maxisorp) at 4° C. overnight. Plates were blocked with Casein blocker in PBS (phosphate buffered saline; Pierce) for one hour at room temperature. Serial 3-fold dilutions of anti Notch1 NRR IgGs or irrelevant IgG in PBST buffer (PBT buffer (PBS+0.05% (v/v) Tween 20) with 0.5% (w/v) BSA) were added to the plates and incubated for one hour at room temperature. The plates were then washed with PBST and bound antibodies were detected with peroxidase-conjugated goat anti human Fab specific IgG (Sigma). TMB substrate (3,3′,5,5′-etramethylbenzidine) was used and absorbance at 650 nm was read using a standard ELISA plate reader. Absorbance was plotted against concentrations of IgGs using KaleidaGraph (Synergy Software).
# [2] = molecular target: T2, hFLAG-EGF34+NRR-His6 (101V), the human Notch1 NRR immunogen (Notch1 V1307-Q1733) (human, UniProt P46531 1307-1733); assay: as above
# T2 construct: also called hNotch1 NRR; human NRR1
# Experimental: as §1
# hFLAG-NRR-His6 (102V) = molecular target: T3, hFLAG-NRR-His6 (102V) (human, UniProt P46531 1447-1733); assay: as above
# T3 construct: no EGF-like repeats; not shown: FLAG tag; thrombin cleavage site and HIS tag
# Experimental: as §1
# [3] = molecular target: T1, mFLAG-EGF34+NRR-His6, the mouse Notch1 …; assay: SPR (BIAcore-3000), IgG captured by anti-human IgG, NRR1-ECD injected 3.9-500 nM, 25 C
# Experimental: (§2) To further characterize the binding affinity and binding kinetics of the anti-Notch1 NRR Mabs, surface plasmon resonance (SRP) measurement with a BIAcore™-3000 was used (BIAcore, Inc., Piscataway, N.J.). Briefly, carboxymethylated dextran biosensor chips (CM5, BIAcore Inc.) were activated with N-ethyl-N′-(3-dimethylaminopropyl)-carbodiimide hydrochloride (EDC) and N-hydroxysuccinimide (NHS) according to the supplier's instructions. Rabbit anti human antibody (Pierce) was diluted with 100 mM sodium acetate, pH 4.8, into 20 μg/ml before injection at a flow rate of 5 μl/minute to achieve approximately 3000 response units (RU) of coupled antibody. Next, 1M ethanolamine was injected to block unreacted groups. Anti-NRR1 mab (formatted as a full-length IgG) was captured by rabbit anti-human IgG coated on the chips to achieve approximately 200 response units (RU). For kinetics measurements, two-fold serial dilutions of human NRR1-ECD or murine NRR1-ECD proteins (3.9 nM to 500 nM) were injected in PBT buffer (PBS with 0.05% Tween 20) at 25° C. with a flow rate of 30 μl/min. Association rates (kₒₙ) and dissociation rates (koff) were calculated using a simple one-to-one Langmuir binding model (BIAcore Evaluation Software version 3.2). The equilibrium dissociation constant (KD) was calculated as the ratio koff/kₒₙ.
# [4] = molecular target: T2, hFLAG-EGF34+NRR-His6 (101V), the human …; assay: as above
# Experimental: as §2
# [5] = molecular target: mEGF34+NRR-L1597H-FLAG-TEV-Fc (mouse) (UniProt Q01705); assay: ELISA, target coated on the plate at 1 ug/ml, IgG titrated in 3-fold steps, detected with peroxidase anti-human Fab; A630
# [6] = molecular target: T1, mFLAG-EGF34+NRR-His6, the mouse Notch1 …; assay: competitive phage-binding ELISA: phage-displayed Fab, soluble NRR1 titrated against coated NRR1
# Experimental: (§3) To identify the phage antibodies that bound to both human and murine Notch1 NRR, all unique clones were tested for binding to human and murine Notch1 by ELISA. The affinities of phage antibodies were ranked using single spot competition ELISA as described below in this Example. The phage antibody IC50 values were further determined using competitive phage-binding ELISA essentially described in Lee, C. V., et al. (2004) J Mol Biol 340, 1073-93. Briefly, NUNC 96 well Maxisorp immunoplates were coated overnight at 4° C. with 1 μg/ml human NRR1 or murine NRR1, and were blocked for 1 hour at room temperature with blocking buffer PBST (PBS and 1% BSA and 0.05% Tween 20). Phage was mixed with serial dilution of human or murine NRR1 at room temperature for 1 hour before the mixture was added to human and murine NRR1 coated plate. Bound phage were detected with anti-M13 HRP conjugates, developed with TMB substrate for approximately 5 minutes, quenched with 1M H₃PO₄, and read spectrophotometrically at 450 nm.
# [7] = molecular target: T2, hFLAG-EGF34+NRR-His6 (101V), the human …; assay: as above
# Experimental: as §3
# T2 sequence (P46531 other isoform, or with tags, fused parts or gaps limits assumed): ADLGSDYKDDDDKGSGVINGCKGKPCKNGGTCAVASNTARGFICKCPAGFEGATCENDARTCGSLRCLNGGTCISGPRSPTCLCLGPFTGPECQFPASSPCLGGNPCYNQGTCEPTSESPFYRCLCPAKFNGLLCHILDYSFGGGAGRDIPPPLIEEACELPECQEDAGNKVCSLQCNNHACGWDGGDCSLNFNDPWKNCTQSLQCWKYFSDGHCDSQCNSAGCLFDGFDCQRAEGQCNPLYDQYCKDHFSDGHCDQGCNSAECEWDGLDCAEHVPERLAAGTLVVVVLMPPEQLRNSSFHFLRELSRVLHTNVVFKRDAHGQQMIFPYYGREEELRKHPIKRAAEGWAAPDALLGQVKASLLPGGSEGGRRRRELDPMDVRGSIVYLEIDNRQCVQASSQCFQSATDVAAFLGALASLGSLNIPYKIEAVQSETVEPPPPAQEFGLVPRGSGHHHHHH
# T1 sequence (Q01705 other isoform, or with tags, fused parts or gaps): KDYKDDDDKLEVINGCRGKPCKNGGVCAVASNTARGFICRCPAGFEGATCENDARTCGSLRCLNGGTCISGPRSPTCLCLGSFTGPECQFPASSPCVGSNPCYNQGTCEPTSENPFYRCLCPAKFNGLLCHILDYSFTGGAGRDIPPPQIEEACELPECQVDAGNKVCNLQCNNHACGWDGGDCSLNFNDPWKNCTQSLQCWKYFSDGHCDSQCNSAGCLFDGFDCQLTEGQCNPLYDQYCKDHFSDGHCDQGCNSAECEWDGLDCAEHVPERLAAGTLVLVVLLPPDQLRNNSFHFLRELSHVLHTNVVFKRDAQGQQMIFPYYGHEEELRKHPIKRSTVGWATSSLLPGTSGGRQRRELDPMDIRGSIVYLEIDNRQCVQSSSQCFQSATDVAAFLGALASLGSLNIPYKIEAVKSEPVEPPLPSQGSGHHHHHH
# Sequence of mEGF34+NRR-L1597H-FLAG-TEV-Fc (mouse) (Q01705 1307-1723, stated change not applied): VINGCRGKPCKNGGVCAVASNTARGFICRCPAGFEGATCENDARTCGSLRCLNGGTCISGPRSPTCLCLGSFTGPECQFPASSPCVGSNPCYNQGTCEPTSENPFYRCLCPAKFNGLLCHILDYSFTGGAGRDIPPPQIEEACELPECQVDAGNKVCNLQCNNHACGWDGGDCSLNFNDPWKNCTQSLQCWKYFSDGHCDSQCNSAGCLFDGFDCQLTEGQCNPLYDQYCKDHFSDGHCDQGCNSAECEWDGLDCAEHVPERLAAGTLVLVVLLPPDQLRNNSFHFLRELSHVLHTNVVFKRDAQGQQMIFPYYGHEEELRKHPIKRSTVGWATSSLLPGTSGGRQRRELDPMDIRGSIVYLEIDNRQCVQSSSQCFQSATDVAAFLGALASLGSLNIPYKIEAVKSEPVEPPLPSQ
# T3 sequence (P46531 1447-1733): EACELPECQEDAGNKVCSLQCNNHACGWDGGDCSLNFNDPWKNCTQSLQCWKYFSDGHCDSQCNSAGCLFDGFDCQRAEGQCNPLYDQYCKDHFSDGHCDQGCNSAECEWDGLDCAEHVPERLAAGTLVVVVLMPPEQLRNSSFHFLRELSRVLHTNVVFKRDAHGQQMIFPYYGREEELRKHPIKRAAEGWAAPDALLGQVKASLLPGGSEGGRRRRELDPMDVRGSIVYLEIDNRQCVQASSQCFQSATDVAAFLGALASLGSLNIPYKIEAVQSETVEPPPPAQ
Binder,EC50 (read off the curve) [1],EC50 (read off the curve) [2],EC50 (read off the curve) (hFLAG-NRR-His6 (102V)),Kd [3],koff [3],kon [3],Kd [4],koff [4],kon [4],EC50 (read off the curve) [5],IC50 [6],IC50 [7]
"Antibody A-1 (antibody, V domains shown, also called Antibody A-1-hIgG1) VH: EVQLVESGGGLVQPGGSLRLSCAASGFTFSSYWIHWVRQAPGKGLEWVARINPPNGSAHYADSVKGRFTISADTSKNTAYLQMNSLRAEDTAVYYCARGSGFRWVMDYWGQGTLVTVSS VL: DIQMTQSPSSLSASVGDRVTITCRASQDVSTAVAWYQQKPDGTVKLLIYSASFLYSGVPSRFSGSGSGTDFTLTISSLQPEDFATYYCQQSYTTPATFGQGTKVEIKR",~0.07 µg/mL,~0.2 µg/mL,~0.1 µg/mL,3.88 nM,0.00033 s⁻¹,85000 M⁻¹ s⁻¹,3.43 nM,0.00023 s⁻¹,67000 M⁻¹ s⁻¹,0.06 µg/mL,–,–
"Antibody A-1 (phage-displayed Fab clone) (Fab, V domains shown) VH: EVQLVESGGGLVQPGGSLRLSCAASGFTFSSYWIHWVRQAPGKGLEWVARINPPNGSAHYADSVKGRFTISADTSKNTAYLQMNSLRAEDTAVYYCARGSGFRWVMDYWGQGTLVTVSS VL: DIQMTQSPSSLSASVGDRVTITCRASQDVSTAVAWYQQKPDGTVKLLIYSASFLYSGVPSRFSGSGSGTDFTLTISSLQPEDFATYYCQQSYTTPATFGQGTKVEIKR",–,–,–,–,–,–,–,–,–,–,0.6 nM,0.8 nM
"Antibody A-3 (antibody, V domains shown) VH: EVQLVESGGGLVQPGGSLRLSCAASGFTFSSYWIHWVRQAPGKGLEWVARINPANGSTRYADSVKGRFTISADTSKNTAYLQMNSLRAEDTAVYYCARGSGFRWVMDYWGQGTLVTVSS VL: DIQMTQSPSSLSASVGDRVTITCRASQDVSTAVAWYQQKPDGTVKLLIYSASFLYSGVPSRFSGSGSGTDFTLTISSLQPEDFATYYCQQSFSTPATFGQGTKVEIK",–,–,–,13 nM,0.0012 s⁻¹,92000 M⁻¹ s⁻¹,5.88 nM,0.0004 s⁻¹,68000 M⁻¹ s⁻¹,–,–,–
"Antibody A-3 (phage-displayed Fab clone) (Fab, V domains shown) VH: EVQLVESGGGLVQPGGSLRLSCAASGFTFSSYWIHWVRQAPGKGLEWVARINPANGSTRYADSVKGRFTISADTSKNTAYLQMNSLRAEDTAVYYCARGSGFRWVMDYWGQGTLVTVSS VL: DIQMTQSPSSLSASVGDRVTITCRASQDVSTAVAWYQQKPDGTVKLLIYSASFLYSGVPSRFSGSGSGTDFTLTISSLQPEDFATYYCQQSFSTPATFGQGTKVEIK",–,–,–,–,–,–,–,–,–,–,2.5 nM,0.5 nM
"Antibody A-2 (antibody, V domains shown, also called Antibody A-2-hIgG1) VH: EVQLVESGGGLVQPGGSLRLSCAASGFTFSSYWIHWVRQAPGKGLEWVARINPPNRSNQYADSVKGRFTISADTSKNTAYLQMNSLRAEDTAVYYCARGSGFRWVMDYWGQGTLVTVSS VL: DIQMTQSPSSLSASVGDRVTITCRASQDVSTAVAWYQQKPDGTVKLLIYSASFLYSGVPSRFSGSGSGTDFTLTISSLQPEDFATYYCQQFYTTPSTFGQGTKVEIKR",~0.05 µg/mL,~0.07 µg/mL,~0.06 µg/mL,3.09 nM,0.00034 s⁻¹,110000 M⁻¹ s⁻¹,2.53 nM,0.00022 s⁻¹,87000 M⁻¹ s⁻¹,0.04 µg/mL,–,–
"Antibody A-2 (phage-displayed Fab clone) (Fab, V domains shown) VH: EVQLVESGGGLVQPGGSLRLSCAASGFTFSSYWIHWVRQAPGKGLEWVARINPPNRSNQYADSVKGRFTISADTSKNTAYLQMNSLRAEDTAVYYCARGSGFRWVMDYWGQGTLVTVSS VL: DIQMTQSPSSLSASVGDRVTITCRASQDVSTAVAWYQQKPDGTVKLLIYSASFLYSGVPSRFSGSGSGTDFTLTISSLQPEDFATYYCQQFYTTPSTFGQGTKVEIKR",–,–,–,–,–,–,–,–,–,–,0.5 nM,0.5 nM

# Reference: patent US20090081238A1 (Genentech, published 2009)
